For the assay, the target named is T1, Human CD22 extracellular segment conjugated His label (human, UniProt P20273 20-687).
T1 construct: extracellular domain; Bought recombinant protein; also called h CD22-His; hCD22-His; not shown: His label
Briefly: ELISA, h CD22-His coated at 2 µg/ml, antibody in 3-fold dilutions. An excerpt: M971 was a 7 epitope humanized CD22 antibody. The specific sequence and information can be found publicly. The antibody was synthesized by Shenzhen FeipengBiological therapy Co., LTD.

B1: CD22 antibody FC2-201 (antibody, IgG2b, V domains shown)
VH: KVQLQQSGAGLVKPGASVKLSCKASGYTFTDSILHWLMQRSGQGLEWIGWFYPGSGSIKYNEKFKDKATLTADKSSSTVYMELSRLTSEDSAFYFCARHEDGYDGFAYWGQGTLVTVSA
VL: ENVLTQSPAIMSASLGEKVTMSCRASSSVNYIFWYQQKSDASPKLWIYYTSNLAPGVPARFSGSGSGNSYSLTISSMEGEDAATYYCQQFTSSPFTFGSGTKLEIKR
notes: Mouse hybridoma monoclonal antibody
Turning to B1, the binding result was “binds”.

B2: CD22 antibody FC2-117 (antibody, IgG1, V domains shown)
VH: DVQLQESGPGLVKPSQSLSLTCSVTGYSITSGYYWNWIRQFPGNKLEWMGYISYDGSNNYNPSLKNRISITRDTSKNQFFLKLNSVTTEDTATYYCTKGGYGYYFDYWGQGTTLTVSS
VL: DIQMTQSPASLSASVGETVTITCRASGNIHNYLAWYQQKQGKSPQLLVYNAKTLADGVPSRFSGSGSGTQYSLKINSLQPEDFGSYYCQHFWSTPPTFGGGTKLEIKR
notes: as for B1
Take B2: the binding result is given as “binds”.

Source of the values: US20230331840A1 (FAPON BIOTHERAPY, published 2023).
